Experimental findings from US12723078 (University of Texas, dated 2026) are described below.

For test [1], the target named is T1, recombinant LILRB1 (human, UniProt Q8NHL6 24-461).
T1 construct: LILRB1-Fc proteins were also made; also called LILRB1 recombinant proteins
Kind of test: ELISA, coated recombinant LILRB1, antibody titration.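 Further: serially diluted anti-LILRB1 antibodies incubated 60 min at 37 °C on plates coated with 50 ng/well recombinant protein, TMB colorimetric development read as absorbance at 450 nm.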
Method: ELISA. LILRB1 recombinant proteins (50 ng/well, 100 μL per well) were coated on Corning 96-well ELISA plates at 37° C. for 4 hrs. Plates were blocked for 2 hrs at 37° C. with 5% non-fat milk. After washing with PBST, 100 μL of serial diluted anti-LILRB1 antibodies were added and incubated for 60 min at 37° C. […] Plates were washed again with PBST for another 5 times, then the immunoreactions were developed with TMB substrates (Sigma, Cat #T0440) and stopped by the addition of 2 M H_2SO_4 before the plate was read at 450 nm.

Test [2] addresses T1, recombinant LILRB1. Kind of test: BLI (Octet RED96), antibody on biosensor, recombinant LILRB1 in solution.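 Further: Background-subtracted sensorgrams fitted with a one-to-one binding model, KD taken as koff over kon.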
Method: Following a short baseline in kinetics buffer for 20 s, the loaded biosensors were exposed to solutions of recombinant LILRB1 in a range of concentrations (0-500 nM). After background was subtracted, data was fit to a 1:1 binding model to extract an association rate ($kon$) and dissociation rate ($koff$). The KD was calculated using the ratio $koff/kon$. […] All experiments were performed with shaking at 1,000 rpm. All raw data was processed using ForteBio Octet Data Analysis Software 9.0.

T1 sequence (Q8NHL6 24-461 limits assumed): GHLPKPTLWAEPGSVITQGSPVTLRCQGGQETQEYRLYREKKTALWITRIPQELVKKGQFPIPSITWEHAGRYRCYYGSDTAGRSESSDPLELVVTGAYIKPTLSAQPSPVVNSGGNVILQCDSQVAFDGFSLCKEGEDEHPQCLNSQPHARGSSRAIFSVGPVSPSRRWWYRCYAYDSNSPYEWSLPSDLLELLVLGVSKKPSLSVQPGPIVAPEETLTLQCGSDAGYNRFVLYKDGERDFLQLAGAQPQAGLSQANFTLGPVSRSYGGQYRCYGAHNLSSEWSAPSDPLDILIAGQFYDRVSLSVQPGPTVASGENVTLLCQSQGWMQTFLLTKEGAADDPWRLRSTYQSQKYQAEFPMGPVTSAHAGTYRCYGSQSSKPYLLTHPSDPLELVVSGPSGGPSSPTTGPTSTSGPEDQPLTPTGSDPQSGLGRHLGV

B1: B1-#18 (antibody, V domains shown)
VH: EQSVKESGGGLVKPGGTLTLTCIVSGFSLSRYAVTWVRQAPGKGPEWIGYIDTSSGNKDYANWVNGRFTISKTSSTTVTLQMTSLTAADTATYFCARGFSMFKLWGPGTLVTISS
VL: ELVMTQTPSSVSAAVGGTVTISCQASQSVYNNNNLAWYQQKPGQPPKRLIYSASTLDSGVPSRFSGSGSGTQFTLTISDLECDDAATYYCAGGYTYNINIFGGGTEVEIK
notes: recombinant rabbit IgG
On to B1, for which the EC50 in the test with recombinant LILRB1 [1] turned out to be 0.0182 µg/mL.

B2: B1-#98 (antibody, V domains shown)
VH: EQSLEESGGDLVKPEGSLTLTCTASGFSFSSSYWICWVRQAPGKGLEWIACVATGSGTTDYASWAKGRFTMSKTSSTTVTLQMTSLTVADTATYFCARIGAFYSFRLWGPGTLVTISS
VL: ELDLTQTPGSVEAAVGGTVTIKCQAGQSIYNYLSWYQQKPGQPPKLLIYSASTLESGVPPRFSGSGSGTEFTLTISDLECADAATYSCQNNYGIGSNYGPGFGGGTEVEIK
notes: recombinant rabbit IgG
For the molecule B2, the EC50 with recombinant LILRB1 [1] was 0.038 µg/mL.

B3: B1-#110 (antibody, V domains shown)
VH: QSLEESGGDLVKPEGSLTLTCTASGFSFSSSYWICWVRQAPGKGLEWIGCIYAGNSANTYYASWAKGRFTISKTSSTTVTLQLTSLTAADTATYFCASRNGGAPDGLNLWGPGTLVTISS
VL: ELDLTQTPASVEAAVGGTVTIKCQASLNINSWLAWYQQKPGQPPKLLISYTSSLASGVPSRFKGSGSGTEYTLTINDLECADAATYYCQTTYFGTNGGGFGGGTEVEIK
notes: recombinant rabbit IgG
Turning to B3, the EC50 in the test with recombinant LILRB1 [1] was determined as 0.0178 µg/mL.

B4: B1-#7 (antibody, V domains shown)
VH: EQSLEESGGGLVKPGASLTVTCAVSGFSLNSYAITWVRQAPGKGLEYIGYIDTGASITDYASWAKGRFTISKTSSTTVTLEMTSLTDADTATYFCARGFSMFKLWGPGTLVTISS
VL: ELDLTQTPSSVSAAVGGTVTISCQASQSVYGNNRLAWYHQKPGQPPKRLIYLASTLDSGVPSRFKGAGSGTQFTLTISDLECDDAATYYCAGGYAGNFNAFGGGTEVEIK
notes: recombinant rabbit IgG
With B4, the EC50 with recombinant LILRB1 [1] was found to be 0.0159 µg/mL.

B5: B1-#173-2 (antibody, V domains shown)
VH: QSVEESGGDLVKPGASLTLTCTASGFDFSSNAYLCWVRQAPGKGLEWIGCIYDGTSGDTYYANWAKGRFTISRSSSTTVTLQMTSLTAADTATYFCARDTRSSNYYFNLWGPGTLVTISS
VL: ELVLTQTPSSTSAAVGGTVTINCQASQSVDNNKQLSWYQQKPGQPPKQLIYSASKLASGVPSRFKGSGSGTQFTLTISDLECDDAATYYCAGYYYSGSATDAWAFGGATEVEIN
notes: recombinant rabbit IgG
With B5, in the test with recombinant LILRB1 [2], the dissociation constant Kd amounted to 1370 pM, the koff came out at 0.000262 s⁻¹ and the on-rate constant (kon) was determined as 192000 M⁻¹ s⁻¹. Besides, the EC50 with recombinant LILRB1 [1] worked out at 0.00656 µg/mL.

B6: B1-#41-1 (antibody, V domains shown)
VH: QSVKESGGDLVKPGASLTLTCTASGFSFSSSYWICWVRQAPGKGLEWIACIYAGSSGSTYYASWAKGRFTISKTSSTTVTLQMTSLTAADTATYFCARSTSGSYGAGLGLWGPGTLVTISS
VL: ELDMTQTASPVSGAVGGTVTIKCQASQNIYNNIGWYQQKPGQPPNLLIYGPSYLASGVPSRFKGSRSGTEYTLTISDLECADAATYYCQSDDWMSISPDIVFGGGTEVEIK
notes: recombinant rabbit IgG
Take B6: in the test with recombinant LILRB1 [2], the Kd is 15800 pM, the koff is 0.00506 s⁻¹ and the kon was 320000 M⁻¹ s⁻¹. In addition, the EC50 with recombinant LILRB1 [1] turned out to be 0.0944 µg/mL.

B7: B1-#226 (antibody, V domains shown)
VH: QEQLVESGGGLVQPEGSLTLTCTASGFSFSSRQYISWVRRAPGKGLEWIGAIVTVNNKVHYANWAKGRFTISEASSTTVTLQMTSLTAADTATYFCARWRTFGLWGPGTLVTVSS
VL: ELVLTQTPSSKSVAVGDTVTINCQASENVYSNNYTSWFQQKPGQPPKQLLYYAAYRASGVPSRFKGSGSGTEFTLSISDVVCDDAATYYCSGHKDYSDDGSTFGGGTEVVVK
notes: recombinant rabbit IgG
Regarding B7, the EC50 with recombinant LILRB1 [1] was 0.00826 µg/mL.

B8: B1-#125 (antibody, V domains shown)
VH: EQSLEESGGGLVQPEGSLTLTCTASGFSFTKNYYMCWVRQAPGKGLEWIGCIYAGSTNTFYASWAKGRFTISKASSTTVDLKMTSLTVADTATYFCARDFVSYLNLWGPGTLVTVSS
VL: ELDLTQTPSSSSAAVGGTVTINCQASQSVYNKNYLSWFQQKPGQPPKLLIYYASTLASGVPSRFKGSGSGTEFTLTISDVVCDDAATYYCAAYKGVSDDGISFGGGTEVEIK
notes: recombinant rabbit IgG
Turning to B8, the EC50 in the test with recombinant LILRB1 [1] worked out at 0.0076 µg/mL.

B9: B1-#196-2 (antibody, V domains shown)
VH: QEQLVESGGGLVQPEGSLTLTCTDSGFSFTKNYYMCWVRQAPGKGLEWIGCIYAGSTNTFYASWAKGRFTISKASSTTVDLKMTSLTVADTATYFCARDFVSYLNLWGPGTLVTVSS
VL: ELDMTQTPSSTSAAVGGTVTIKCQASQSVYNNNQLSWFQQKPGQPPKRLIYGASTLESGVPSRFSGSGSGTQFTLTISDLECDDAATYYCQGAVSSDYYPFGGGTEVEIK
notes: recombinant rabbit IgG
In the case of B9, in the test with recombinant LILRB1 [1], the EC50 is 0.151 µg/mL.

B10: B1-#19 (antibody, V domains shown)
VH: EQSVEESGGGLVKPEGSLTLTCKASGLDFSSSYWSCWVRQTPGRGLEWIGCIDVGSSGGSYYASWARGRFTVSKGSSTTVTLQMTSLTAADTATYFCASTTTNVFGYDLWGPGTLVTVSS
VL: ELDLTQTPASVSEPVGGTVTIKCQASQNIYNNLAWYQQKPGQPPKLLIYYASTLASGVPPRFSGSGSGTEYTLTISDLECDDAATYYCQNNAGIYGGYGHGFGGGTEVVVK
notes: recombinant rabbit IgG
For the molecule B10, in the test with recombinant LILRB1 [1], the EC50 stood at 0.0196 µg/mL.

B11: B1-#128 (antibody, V domains shown)
VH: RAVGKESGGDLVTLGGSLKLSCKASGIDLSNFYYMCWVRQAPGKGLEWIGCVASDSSRTHYATWPKGRFTISKTSSTTVTLQMTSLTAADTATYFCARGSGASTNGVWWVMGDGMDLWGPGTLVTVSS
VL: ELDMTQTPSSVSAAVGGTVTIKCQASQSISSYLSWYQQKPGQPPKRLIYKASTLPSGVPPRFKGSGSGTEFTLTISDLECADAATYYCQNNYHSGSSNGGGFAFGGGTQVEIK
notes: recombinant rabbit IgG
Regarding B11, in the test with recombinant LILRB1 [1], the EC50 came out at 0.04 µg/mL.

B12: B1-#10 (antibody, V domains shown)
VH: EQSVEESGGGLVKPEGSLTLTCKASGLDFSSSYWICWVRQAPGKGLEWIACIDTGSSGSTYYASWAKGRFTVSKTSSTTVSLQMTSLTAADTATYFCASTPNSLGYDLWGPGTLVTISS
VL: ELDLTQTPASVSAAVGGTVTIKCQASQNIVSNLAWYQQKPGQRPKLLIYYASTLASGVPSRFKGSGSGTEYTLTISDLECADAATYYCQNNAGIYGNYGHGFGGGTELEIK
notes: recombinant rabbit IgG
For the molecule B12, the EC50 with recombinant LILRB1 [1] turned out to be 0.0209 µg/mL.

B13: B1-#176 (antibody, V domains shown)
VH: QSLEESEGGLVKPGGTLTLTCTASGFSFSSSYCMCWVRQAPGKGLELIACIYTDSSGATYYASWAKGRFTISKSSSTTITLQMTSLTAADTATYFCARGWDYEDPGYTDTTYFSLWGPGTLVTVSS
VL: ELDLTQTPSSVEAAVGGTVTIKCQASQTIYTNLAWYQQKPGQPPNLLIYAASTLASGVSSRFKGSGSGTEFTLTISDLECADAATYYCQSYYGSSTTGNGFGGGTEVEIK
notes: recombinant rabbit IgG
For the molecule B13, in the test with recombinant LILRB1 [2], the Kd was determined as 619 pM, the koff was found to be 5.59e-05 s⁻¹ and the kon amounted to 90300 M⁻¹ s⁻¹. Further, in the test with recombinant LILRB1 [1], the EC50 stood at 0.00224 µg/mL.

B14: B1-#3 (antibody, V domains shown)
VH: QSLEESEGDLVKPEGSLTLTCKASGFDFSSDAMCWVRQAPGKGLEWIGCIYNGDEITDHASWAKGRFTISKTSPTTVTLQMTSLTVADTATYFCARAVYSDGGAGYPYMYGMDLWGPGTLVTVSS
VL: ELDMTQTPASVEAAVGGTVTIKCQASQNIYSYLVWYQQKPGQPPKLLISKASTLASGVSSRFKGSGSGTEFTLTINDLECADAATYYCQTNYFSSTSHFGVFTFGGGTELEIK
notes: recombinant rabbit IgG
With B14, in the test with recombinant LILRB1 [2], the Kd was determined as 505 pM, the koff was found to be 5.63e-05 s⁻¹ and the kon was found to be 112000 M⁻¹ s⁻¹. For the same molecule, in the test with recombinant LILRB1 [1], the EC50 turned out to be 0.0119 µg/mL.

Broadly, the EC50 is the concentration at which the effect is half-maximal. The term Kd denotes the constant that tells how readily two partners part at equilibrium. For orientation: koff means the first-order rate constant of dissociation. What is called kon is the second-order rate constant of association.
